What was measured:
UraA = target: T1, UraA (Escherichia coli, UniProt P0AGM7); assay: differential scanning fluorimetry (CPM dye); assay type: binding; conditions: 20 mM Hepes pH 7.5, 150 mM NaCl, 0.2% DM
T1 construct: full-length ORF, expressed in E. coli MC1061 from pBXC3GH (tag removed with HRV-3C protease), decylmaltoside-solubilized; C-terminal biotinylated AVI-tag for SPA; WT and G112P monomeric, P330G dimeric, G320P both fractions

uracil = assay: scintillation proximity assay (homologous competition with 3H-uracil)
[1] = target: T2, wild type UraA (E. coli uracil permease) (E. coli, UniProt P0AGM7); assay: differential scanning fluorimetry; UraA variants 0.1 mg/mL in 20 mM Hepes pH 7.5, 150 mM NaCl, 0.2% DM, without uracil, in absence and presence of Sy45; CPM dye, 25 to 90 °C at 2 °C/min; conditions: both partners purified
T2 construct: uracil permease UraA, E. coli; open reading frame amplified from genomic DNA of E. coli MC1061; Membrane protein in 0.2% decylmaltoside; elutes as monomers and dimers; A few residues of the FX cloning sites and of the 3C site probably remain after cleavage (surmised); also called UraA(WT); source: E. coli MC1061 (pBXC3GH), purified (decylmaltoside-solubilised, Ni-NTA, eluted with HRV-3C protease, …)

Molecule: O=c1cc[nH]c(=O)[nH]1 [uracil]
- Tm with 1 mM uracil (apo Tm 54.2 ± 0.2 °C) (UraA): 64.1 ± 0.1 °C

Molecule: wild type UraA (E. coli uracil permease) (from UniProt P0AGM7) G320P
- Kd (uracil; absence of Sy45): 35 nM
- Kd (uracil; presence of Sy45 (panel titled UraA(G320P)-Sy45)): 144 nM

Molecule: wild type UraA (E. coli uracil permease) (from UniProt P0AGM7) P330G
- Kd (uracil; absence of Sy45): 7 nM

B1: sybody Sy45 (synthetic nanobody) (VHH)
VHH: QVQLVESGGGSVQAGGSLRLSCAASGNIAYIHYLGWFRQAPGKEREGVAALSTTLGNTYYADSVKGRFTVSLDNAKNTVYLQMNSLKPEDTALYYCAAAYFGYSSPLAHERYMYWGQGTQVTVSA
notes: sybody with a convex paratope, selected from a synthetic library against wild type UraA; also called synthetic single-domain antibody; conformational probe
- thermostabilization (increase of melting temperature) [1]: 16.7 °C
